The values below come from US20190300590A1 (PROTAGONIST THERAPEUTICS, published 2019).

*1 amine or outer side, *2 acyl side, *3 side chain or, on linkers, in order; H or OH if unused. Bridges are numbered along the chain shown (N, C = ends). Primed or numbered codes have the meaning given here. [ ]: non-standard residue; d: D form. Phe(4-OMe)(5) = O-methyl-L-tyrosine (4-methoxy-Phe), COc1ccc(C[C@H](N[*:1])C(=O)[*:2])cc1; Phe(3,4-(OMe)2) = COc1ccc(C[C@H](N)C(=O)O)cc1OC; Phe(4-CF3) = N[C@@H](Cc1ccc(C(F)(F)F)cc1)C(=O)O; 2Nal = N[C@@H](Cc1ccc2ccccc2c1)C(=O)O; AEF = NCCOc1ccc(C[C@H](N)C(=O)O)cc1; Gly(octyl) = CCCCCCCC[C@H](N)C(=O)O; hArg = N=C(N)NCCCC[C@H](N)C(=O)O; Pen = CC(C)(S)[C@H](N)C(=O)O; αMeK = C[C@](N)(CCCCN)C(=O)O; Iva = CC[C@](C)(N)C(=O)O; Abu = CC[C@H](N)C(=O)O; Dap = NC[C@H](N)C(=O)O; AEA = NCCOCC(=O)O Where only a bound is given, the exact number is not on record here.

Assay [1] deals with T1, IL-23R on human cells (IL-23R-expressing DB cells; human NK cells) (human, UniProt Q5VWK5 24-629).
T1 sequence (looked up): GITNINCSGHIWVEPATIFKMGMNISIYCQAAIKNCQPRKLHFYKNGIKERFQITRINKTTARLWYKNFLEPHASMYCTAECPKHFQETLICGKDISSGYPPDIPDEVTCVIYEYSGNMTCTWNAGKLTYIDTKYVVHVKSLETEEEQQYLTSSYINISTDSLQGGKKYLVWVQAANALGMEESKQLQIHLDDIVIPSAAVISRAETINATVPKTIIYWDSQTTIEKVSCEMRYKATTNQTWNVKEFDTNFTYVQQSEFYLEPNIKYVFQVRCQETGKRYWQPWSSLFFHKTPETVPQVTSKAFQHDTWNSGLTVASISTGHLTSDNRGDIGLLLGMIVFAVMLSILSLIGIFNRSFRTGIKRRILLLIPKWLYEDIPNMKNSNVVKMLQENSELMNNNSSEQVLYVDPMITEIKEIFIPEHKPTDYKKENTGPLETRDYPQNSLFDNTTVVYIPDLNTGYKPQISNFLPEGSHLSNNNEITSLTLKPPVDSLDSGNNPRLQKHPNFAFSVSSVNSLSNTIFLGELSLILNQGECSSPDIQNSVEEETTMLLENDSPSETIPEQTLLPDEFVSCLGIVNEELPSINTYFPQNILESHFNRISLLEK
The experiment in a line: cell-based or functional assay.

Assay [2] has as its target T2, IL23R_huFC (human, UniProt Q5VWK5 24-353).
T2 sequence (looked up): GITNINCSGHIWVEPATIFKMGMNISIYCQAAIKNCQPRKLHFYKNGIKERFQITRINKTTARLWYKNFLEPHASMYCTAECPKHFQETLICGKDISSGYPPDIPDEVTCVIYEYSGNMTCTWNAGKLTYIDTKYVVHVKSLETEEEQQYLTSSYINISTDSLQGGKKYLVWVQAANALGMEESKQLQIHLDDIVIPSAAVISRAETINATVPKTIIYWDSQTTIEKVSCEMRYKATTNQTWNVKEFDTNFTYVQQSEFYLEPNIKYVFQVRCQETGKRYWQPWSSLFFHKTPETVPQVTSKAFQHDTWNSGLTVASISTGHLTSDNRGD
The experiment in a line: human ELISA vs IL-23.

The target in assay [3] is T3, IL23R_huFC (human, UniProt Q5VWK5 24-353).
T3 sequence (looked up): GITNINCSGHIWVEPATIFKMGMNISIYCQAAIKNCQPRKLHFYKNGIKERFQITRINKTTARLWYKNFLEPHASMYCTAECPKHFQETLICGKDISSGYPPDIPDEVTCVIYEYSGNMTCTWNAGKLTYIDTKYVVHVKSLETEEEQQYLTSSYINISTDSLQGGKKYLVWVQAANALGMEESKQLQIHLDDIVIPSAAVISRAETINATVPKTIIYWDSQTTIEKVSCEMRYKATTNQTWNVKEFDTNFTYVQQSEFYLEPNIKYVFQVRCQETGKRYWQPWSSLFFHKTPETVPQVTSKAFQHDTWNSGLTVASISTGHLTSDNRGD
Description: IL23-IL23R competitive ELISA.

The next assay addresses T4, IL-23R on DB cells (human, UniProt Q5VWK5 24-629).
T4 sequence (looked up): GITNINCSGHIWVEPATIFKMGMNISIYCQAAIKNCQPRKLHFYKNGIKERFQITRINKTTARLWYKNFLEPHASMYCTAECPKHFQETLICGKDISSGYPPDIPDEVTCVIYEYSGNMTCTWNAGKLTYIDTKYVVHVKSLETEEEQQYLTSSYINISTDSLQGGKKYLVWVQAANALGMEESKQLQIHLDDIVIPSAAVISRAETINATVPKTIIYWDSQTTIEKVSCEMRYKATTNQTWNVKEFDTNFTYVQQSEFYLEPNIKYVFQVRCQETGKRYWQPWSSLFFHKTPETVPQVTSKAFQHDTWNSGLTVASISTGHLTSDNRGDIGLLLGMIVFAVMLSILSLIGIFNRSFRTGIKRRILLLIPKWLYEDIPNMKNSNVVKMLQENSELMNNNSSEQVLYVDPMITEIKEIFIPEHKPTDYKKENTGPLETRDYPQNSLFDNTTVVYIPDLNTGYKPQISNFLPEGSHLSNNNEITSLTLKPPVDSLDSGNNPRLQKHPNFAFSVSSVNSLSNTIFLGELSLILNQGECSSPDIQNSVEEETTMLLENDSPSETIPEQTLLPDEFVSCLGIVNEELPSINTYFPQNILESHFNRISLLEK
The experiment in a line: cell-based or functional assay.

As for Ac-[Abu]QTWQC[AEF][2Nal][αMeK]K(Ac)NG[AEA][dK]-NH2 (thioether 1-6) [Ac-Cyclo-[[Abu]-QTWQC]-[Phe[4-(2-aminoethoxy)]]-[2-Nal][α-MeLys]-[Lys(Ac)]--NG-[AEA]-[(D)Lys]-NH2], in assay [1], the “pStat3 HTRF IC50” value was below 10 nM. In the assay with IL23R_huFC [2], the IC50 (in general, the concentration that inhibits the measured activity by half) is below 10 nM.

As to Ac-[Abu]QTWQC[AEF]W[αMeK]K(Ac)[Dap]G-NH2 (thioether 1-6) [Ac-Cyclo-[[Abu]-QTWQC]-[Phe[4-(2-aminoethoxy)]]-W-[α-MeLys]-[Lys(Ac)]-[Dap]-G-NH2], in the assay with IL23R_huFC [2], the IC50 is above 1000 nM.

Take Ac-[Abu]TWQC[AEF][2Nal][αMeK]ENG-NH2 (thioether 1-5) [Ac-Cyclo-[[Abu]-TWQC]-[Phe[4-(2-aminoethoxy)]]-[2-Nal]-[α-MeLys]-ENG-NH2]: the “pStat3 HTRF IC50” value in assay [1] is below 10 nM. The IC50 with IL23R_huFC [2] was below 10 nM.

For H-CRTWQCYWRKFG-NH2 (disulfide 1-6 (inferred)) [Hy-CRTWQCYWRKFG-NH2], in the assay with IL23R_huFC [3], the IC50 was below 500 nM.

B1: Ac-[Pen]-QTWQ-[Pen]-[2-Nal]-[2-Nal]-[α-MeLys]-ENG-NH2 (peptide)
peptide: Ac-[Pen]QTWQ[Pen][2Nal][2Nal][αMeK]ENG-NH2
modifications: disulfide 1-6
SMILES: CC(=O)N[C@@H]1C(=O)N[C@@H](CCC(N)=O)C(=O)N[C@@H]([C@@H](C)O)C(=O)N[C@@H](Cc2c[nH]c3ccccc23)C(=O)N[C@@H](CCC(N)=O)C(=O)N[C@H](C(=O)N[C@@H](Cc2ccc3ccccc3c2)C(=O)N[C@@H](Cc2ccc3ccccc3c2)C(=O)N[C@@](C)(CCCCN)C(=O)N[C@@H](CCC(=O)O)C(=O)N[C@@H](CC(N)=O)C(=O)NCC(N)=O)C(C)(C)SSC1(C)C
As to B1, the “pStat3 HTRF IC50” value with IL-23R on DB cells was 10 to 25 nM.

Consider XQTWQXFXXENN (Ac; Pen-Pen disulfide; Phe[4-(2-acetylaminoethoxy)]; 2-Nal; Aib; NH2) [Ac-[Pen]-QTWQ-[Pen]-[Phe[4-(2-acetylaminoethoxy)]-[2-Nal]-[Aib]-ENN-NH2], for which the “pStat3 HTRF IC50” value in the assay with IL-23R on DB cells is below 10 nM.

Regarding Ac-R[Abu]QTWQC[AEF][2Nal][αMeK]ENN-NH2 (thioether 2-7) [Ac-Arg-Cyclo-[[Abu]-QTWQC]-[Phe[4-(2-aminoethoxy)]]-[2-Nal]-[α-MeLys]-ENN-NH2], the “pStat3 HTRF IC50” value in assay [1] was below 10 nM. In addition, the IC50 in the assay with IL23R_huFC [2] was below 10 nM.

For the molecule XQTWQXFXXKNN (Ac; Pen-Pen disulfide; Phe[4-(2-acetylaminoethoxy)]; 2-Nal; Aib; Lys(Ac); NH2) [Ac-[Pen]-QTWQ-[Pen]-[Phe[4-(2-acetylaminoethoxy)]-[2-Nal]-[Aib]-[Lys(Ac)]-NN-NH2], in the assay with IL-23R on DB cells, the “pStat3 HTRF IC50” value was below 10 nM.

Ac-[Pen][Dap]TWQ[Pen][AEF][2Nal][αMeK]ENG-NH2 (disulfide 1-6 (inferred)) [Ac-[Pen]-[Dap]-TWQ-[Pen]-[Phe[4-(2-aminoethoxy)]-[2-Nal]-[α-MeLys]-ENG-NH2]: the “pStat3 HTRF IC50” value with IL-23R on DB cells was below 10 nM.

Molecule Ac-[Abu]QT[Phe(3,4-(OMe)2)]QC[AEF][2Nal][αMeK]ENG-NH2 (thioether 1-6) [Ac-Cyclo-[[Abu]-QT-[Phe(3,4-OMe)]-QC]-[Phe[4-(2-aminoethoxy)]]-[2-Nal]-[α-MeLys]-ENG-NH2] had an IC50 with IL23R_huFC [2] of around 3000 nM.

Regarding Ac-[Abu]QTWQC[AEF][2Nal][Iva]K(Ac)NG-NH2 (thioether 1-6) [Ac-Cyclo-[[Abu]-QTWQC]-[Phe[4-(2-aminoethoxy)]]-[2-Nal]-[α-Me-Gly(Ethyl)]Lys(Ac)]-NG-NH2], the “pStat3 HTRF IC50” value in assay [1] is below 10 nM. The IC50 with IL23R_huFC [2] is below 10 nM.

Molecule Ac-[Abu]QT[Phe(4-CF3)]QC[AEF][2Nal][αMeK]ENG-NH2 (thioether 1-6) [Ac-Cyclo-[[Abu]-QT-[Phe(4-CF3)]-QC]-[Phe[4-(2-aminoethoxy)]]-[2-Nal]-[α-MeLys]-ENG-NH2] displayed an IC50 with IL23R_huFC [2] of around 3000 nM.

Turning to Ac-[Abu]TTWQC[AEF][2Nal][αMeK]ENG-NH2 (thioether 1-6) [Ac-Cyclo-[[Abu]-TTWQC]-[Phe[4-(2-aminoethoxy)]]-[2-Nal]-[α-MeLys]-ENG-NH2], the “pStat3 HTRF IC50” value in assay [1] was below 10 nM. Further, the IC50 with IL23R_huFC [2] is below 10 nM.

Ac-[Abu]QTYQC[Phe(4-OMe)(5)][2Nal][αMeK]K(Ac)NG-NH2 (thioether 1-6) [Ac-Cyclo-[[Abu]-QTYQC]-[Phe(4-OMe)]-[2-Nal]-[α-MeLys]-[Lys(Ac)]-NG-NH2] had an IC50 with IL23R_huFC [2] of around 10000 nM.

As for Ac-[Abu]QTWQC[AEF][2Nal][αMeK]NNG-NH2 (thioether 1-6) [Ac-Cyclo-[[Abu]-QTWQC]-[Phe[4-(2-aminoethoxy)]]-[2-Nal]-[α-MeLys]-NNG-NH2], in assay [1], the “pStat3 HTRF IC50” value is below 10 nM. The IC50 with IL23R_huFC [2] was below 10 nM.

On to Ac-[Abu]QTWQC[AEF][2Nal][αMeK]QNG-NH2 (thioether 1-6) [Ac-Cyclo-[[Abu]-QTWQC]-[Phe[4-(2-aminoethoxy)]]-[2-Nal]-[α-MeLys]-QNG-NH2], for which the “pStat3 HTRF IC50” value in assay [1] was below 10 nM. The molecule also registered an IC50 with IL23R_huFC [2] below 10 nM.

With Ac-[Abu]QTWQC[AEF][2Nal][αMeK][hArg]NG-NH2 (thioether 1-6) [Ac-Cyclo-[[Abu]-QTWQC]-[Phe[4-(2-aminoethoxy)]]-2-Nal]-[α-MeLys]-hRNG-NH2], the “pStat3 HTRF IC50” value in assay [1] was below 10 nM. Also, the IC50 with IL23R_huFC [2] is below 10 nM.

On to Ac-[Abu]QTWQC[Gly(octyl)][2Nal][αMeK]K(Ac)NG-NH2 (thioether 1-6) [Ac-Cyclo-[[Abu]-QTWQC]-[Octgly]-[2-Nal]-[α-MeLys]-[Lys(Ac)]-NG-NH2], for which, in the assay with IL23R_huFC [2], the IC50 was around 10000 nM.
